Results published in publication PMC5303273, “Rab1 interacts with GOLPH3 and controls Golgi structure and contractile ring constriction during cytokinesis in Drosophila melanogaster” (Open Biology, 2017).

Biological target: T1, 6XHis-GOLPH3 (Drosophila melanogaster, UniProt Q9VQ93 1-294)
T1 construct: Drosophila GOLPH3 made with the pET Directional TOPO Expression kit; also called 6XHis-tagged GOLPH3; recombinant GOLPH3; source: recombinant (pET Directional TOPO Expression kit), purified (cOmplete His-Tag Purification Resin)
T1 sequence (Q9VQ93 whole entry): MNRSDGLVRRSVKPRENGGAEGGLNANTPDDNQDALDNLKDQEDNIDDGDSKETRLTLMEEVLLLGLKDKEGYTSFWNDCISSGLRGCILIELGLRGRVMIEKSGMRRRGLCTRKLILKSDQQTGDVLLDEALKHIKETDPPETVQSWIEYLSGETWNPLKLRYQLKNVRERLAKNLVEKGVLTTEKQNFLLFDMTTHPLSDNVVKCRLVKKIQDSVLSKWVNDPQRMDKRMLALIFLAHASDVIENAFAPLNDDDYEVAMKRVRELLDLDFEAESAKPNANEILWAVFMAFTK
Test: pull-down; GST-Rab protein on glutathione beads loaded with GMP-PNP (GTP), incubated with recombinant 6XHis-GOLPH3 for 5 h at 4°C; blot with anti-6XHis
Conditions: both partners purified

binding result: binds
B1: GST-Rab1 (natural protein)
chain: not shown
notes: full-length cDNA of Drosophila Rab1 cloned into pGEX-6p-2; In the direct pull-down the protein on the beads was loaded with GDP-beta-S or GMP-PNP; also called GST-full-length Drosophila Rab1; source: BL21-CodonPlus (DE3), purified (Glutathione-Sepharose 4B beads)
